Here are results for 15 molecules from patent US7407939.

Test [1] deals with protein kinase A, catalytic subunit. The test is described as follows: cell-based or functional assay.
The target of another test is protein kinase B (UniProt P31749). The test is described as follows: cell-based or functional assay.

Where no end group is shown, it is not given here. Side-chain parts run from the residue outwards. [ ]: non-standard residue; d: D form. The star is where a group is joined. X1 = 5‑aminoethylsulfonamide isoquinoline, O=S(=O)(NCCN*)c1cccc2cnccc12; hLeu = CC(C)CC[C@H](N)C(=O)O; Nle = CCCC[C@H](N)C(=O)O; Orn = NCCC[C@H](N)C(=O)O; Dab = NCC[C@H](N)C(=O)O; Nva = CCC[C@H](N)C(=O)O; Abu = CC[C@H](N)C(=O)O; Dap = NC[C@H](N)C(=O)O; GlyNH2 = aminoglycine; βAla = NCCC(=O)O Some results are limits rather than exact numbers.

Sequence of protein kinase B (P31749 whole entry): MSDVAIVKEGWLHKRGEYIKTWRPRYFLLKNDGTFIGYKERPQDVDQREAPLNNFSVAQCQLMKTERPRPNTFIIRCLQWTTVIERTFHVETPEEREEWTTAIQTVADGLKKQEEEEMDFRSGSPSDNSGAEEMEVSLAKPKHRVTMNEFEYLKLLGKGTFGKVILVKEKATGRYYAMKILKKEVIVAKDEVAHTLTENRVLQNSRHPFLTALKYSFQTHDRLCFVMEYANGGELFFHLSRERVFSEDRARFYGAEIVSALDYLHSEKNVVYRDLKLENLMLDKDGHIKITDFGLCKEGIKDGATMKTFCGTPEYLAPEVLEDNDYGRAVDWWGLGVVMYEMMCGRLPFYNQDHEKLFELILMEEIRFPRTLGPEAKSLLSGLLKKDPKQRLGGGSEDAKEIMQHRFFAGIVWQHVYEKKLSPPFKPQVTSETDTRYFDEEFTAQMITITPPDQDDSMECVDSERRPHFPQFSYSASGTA

B1: TY-60020-57 (peptide)
peptide: RPR[Nle]E([Gly-X1])[Dab]F
modifications: not fully specified (C-terminus)
As to B1, in test [1], the % inhibition of kinase activity at 1 µM; PKA-kinase Assay 1 came to 95%, the % inhibition of kinase activity at 1 µM; PKA-kinase Assay 2 was found to be 96% and the IC50 PKA was 210 nM. In the test with protein kinase B, this molecule returned a % inhibition of kinase activity at 1 µM; PKB-kinase (spa) Assay 1 of 92%, a % inhibition of kinase activity at 1 µM; PKB-kinase (spa) Assay 2 of 93% and an IC50 PKB of 70 nM.

B2: 60005-75 (peptide)
peptide: RPR[Nva]S[GlyNH2][hLeu]
Regarding B2, the % Inhibition PKA in test [1] was -4%. In the test with protein kinase B, this molecule had a % Inhibition PKB I of 70% and a % Inhibition PKB II of 70%.

B3: 60005-84 (peptide)
peptide: RPR[Nva]TA[hLeu]
Take B3: the % Inhibition PKA in test [1] was 7%. In the test with protein kinase B, this molecule came in with a % Inhibition PKB I of 39% and a % Inhibition PKB II of 48%.

B4: TY-60020-58 (peptide)
peptide: RPR[Nle]E([Gly-X1])[Dab][hLeu]
modifications: not fully specified (C-terminus)
On to B4, for which, in test [1], the % inhibition of kinase activity at 1 µM; PKA-kinase Assay 1 is 98%, the % inhibition of kinase activity at 1 µM; PKA-kinase Assay 2 came to 99% and the IC50 PKA was 50 nM. Also, in the test with protein kinase B, the % inhibition of kinase activity at 1 µM; PKB-kinase (spa) Assay 1 was found to be 89%, the % inhibition of kinase activity at 1 µM; PKB-kinase (spa) Assay 2 came out at 93% and the IC50 PKB was determined as 120 nM.

B5: TY-60020-96 (peptide)
peptide: RPR[Nle]E([βAla-X1])[Nva][hLeu]
modifications: not fully specified (C-terminus)
In the case of B5, in the test with protein kinase B, the % inhibition of kinase activity at 1 µM; PKB-kinase (spa) Assay 1 was 0% and the % inhibition of kinase activity at 1 µM; PKB-kinase (spa) Assay 2 stood at 54%.

B6: 60002-38 (peptide)
peptide: RPR[Nva]SAF
B6: in test [1], the % Inhibition PKA was -2% and the IC50 µM PKA came out at 80 µM. In the test with protein kinase B, the % Inhibition PKB I was found to be 43% and the IC50 µM PKB came out at 18 µM.

B7: 60002-88 (peptide)
peptide: RPRT[Abu][Dap]F
Turning to B7, the % Inhibition PKA in test [1] is -3%. Also, in the test with protein kinase B, the % Inhibition PKB I turned out to be 40%.

B8: TY-60020-10 (peptide)
peptide: RPR[Orn]E(X1)[Dab][hLeu]
modifications: not fully specified (C-terminus)
In test [1], B8 showed a % inhibition of kinase activity at 1 µM; PKA-kinase Assay 1 of 92% and a % inhibition of kinase activity at 1 µM; PKA-kinase Assay 2 of 94%. Also, in the test with protein kinase B, the % inhibition of kinase activity at 1 µM; PKB-kinase (spa) Assay 1 came to 45% and the % inhibition of kinase activity at 1 µM; PKB-kinase (spa) Assay 2 came to 48%.

B9: TY-60020-42 (peptide)
peptide: RPR[Orn]E([Gly-X1])[Dab][hLeu]
modifications: not fully specified (C-terminus)
As to B9, in test [1], the % inhibition of kinase activity at 1 µM; PKA-kinase Assay 1 was 99%, the % inhibition of kinase activity at 1 µM; PKA-kinase Assay 2 is 99% and the IC50 PKA worked out at 50 nM. Besides, in the test with protein kinase B, the % inhibition of kinase activity at 1 µM; PKB-kinase (spa) Assay 1 amounted to 80%, the % inhibition of kinase activity at 1 µM; PKB-kinase (spa) Assay 2 was 86% and the IC50 PKB stood at 110 nM.

B10: TY-60020-9 (peptide)
peptide: RPR[Orn]E(X1)[Dab]F
modifications: not fully specified (C-terminus)
Turning to B10, in test [1], the % inhibition of kinase activity at 1 µM; PKA-kinase Assay 1 was 96% and the % inhibition of kinase activity at 1 µM; PKA-kinase Assay 2 is 97%. In addition, in the test with protein kinase B, the % inhibition of kinase activity at 1 µM; PKB-kinase (spa) Assay 1 stood at 71% and the % inhibition of kinase activity at 1 µM; PKB-kinase (spa) Assay 2 came to 57%.

B11: TY-60020-95 (peptide)
peptide: RPR[Nle]E([βAla-X1])[Nva]F
modifications: not fully specified (C-terminus)
B11 gave an IC50 PKA in test [1] of 2000 nM. In the test with protein kinase B, this molecule returned a % inhibition of kinase activity at 1 µM; PKB-kinase (spa) Assay 1 of 46%, a % inhibition of kinase activity at 1 µM; PKB-kinase (spa) Assay 2 of 90% and an IC50 PKB of 3300 nM.

B12: TY-60020-11 (peptide)
peptide: RPR[Orn]E(X1)[Orn]F
modifications: not fully specified (C-terminus)
B12: in test [1], the % inhibition of kinase activity at 1 µM; PKA-kinase Assay 1 was 95% and the % inhibition of kinase activity at 1 µM; PKA-kinase Assay 2 was 96%. For the same molecule, in the test with protein kinase B, the % inhibition of kinase activity at 1 µM; PKB-kinase (spa) Assay 1 was determined as 58% and the % inhibition of kinase activity at 1 µM; PKB-kinase (spa) Assay 2 amounted to 52%.

B13: 60006-18A (peptide)
peptide: RPR[Nva]GA[hLeu]
As to B13, in test [1], the % Inhibition PKA was 11% and the IC50 µM PKA was > 100 µM. In the test with protein kinase B, this molecule registered a % Inhibition PKB I of 47%, a % Inhibition PKB II of 52% and an IC50 µM PKB of 9.45 µM.

B14: 60005-32 (peptide)
peptide: RPRT[GlyNH2]A[hLeu]
Take B14: the % Inhibition PKA in test [1] was 4%. In addition, in the test with protein kinase B, the % Inhibition PKB I was 43% and the % Inhibition PKB II turned out to be 44%.

B15: TY-60020-59 (peptide)
peptide: RPR[Nle]E([Gly-X1])[Orn]F
modifications: not fully specified (C-terminus)
In test [1], B15 yielded a % inhibition of kinase activity at 1 µM; PKA-kinase Assay 1 of 92%, a % inhibition of kinase activity at 1 µM; PKA-kinase Assay 2 of 93% and an IC50 PKA of 200 nM. In the test with protein kinase B, this molecule had a % inhibition of kinase activity at 1 µM; PKB-kinase (spa) Assay 1 of 62%, a % inhibition of kinase activity at 1 µM; PKB-kinase (spa) Assay 2 of 75% and an IC50 PKB of 300 nM.
